Where two headings read alike, the source gives them in different places.
What was measured:
[1] = target: T1, recombinant human CD3 epsilon extra-cellular domain protein (His-Tag, SinoBiological) (human, UniProt P07766 23-126); assay: SPR; hCD3ε immobilized, two-state fit (kd1)
T1 construct: extracellular domain; Bought; also called hCD3ε; human CD3ε; not shown: His tag

[2] = target: T2, human ROR1 expressed on cells (human, UniProt Q01973 30-937); assay: cell-based or functional assay
[3] = target: T2, human ROR1 expressed on cells; assay: cell-based or functional assay; remark: listed apart in the source
[4] = target: T1, recombinant human CD3 epsilon …; assay: SPR; hCD3ε immobilized, two-state fit;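 note: biacore T200 measurement with target covalently coupled to a CM5 chip, antibody constructs injected as analyte over a concentration series, constants derived in Biacore Evaluation software 3.2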
Procedure: (§1) Binding kinetics (including affinity) of the nine selected scMATCH3 molecules to recombinant human CD3 epsilon extra-cellular domain protein (hCD3ε; His-Tag, SinoBiological) were determined by SPR analysis on a T200 device (Biacore, Cytiva). Recombinant hCD3ε molecules were covalently immobilized to a carboxymethylated dextran surface (CM5 sensorchip; Biacore, Cytiva) and a titration series of each MATCH3 molecule was injected as analyte. After each analyte injection-cycle, every flow channel on the sensor chip was regenerated (Glycine, pH 2.0 and 3 M MgCl₂), and a new concentration of MATCH3 molecule was injected. […] The apparent dissociation (kₐ₁) and association (kₐ₁) rate constants, the second reaction constants (kₐ₂ and kd) and the apparent dissociation equilibrium constant (KD) were calculated with the Biacore analysis software (Biacore Evaluation software Version 3.2, Cytiva) using a two-state binding model, and quality of the fits was monitored based on relative Chi2. The binding level was calculated as the maximum stability binding achieved normalized to the theoretical Rmax.

[5] = target: T2, human ROR1 expressed on cells; assay: cell-based or functional assay; remark: listed apart in the source
[6] = target: T1, recombinant human CD3 epsilon …; assay: SPR; hCD3ε immobilized, two-state fit (ka1)
Procedure: as §1

[7] = target: T3, recombinant human ROR1 protein (Fc-Tag, Acro Biosystems RO1-H5250) (human, UniProt Q01973 30-406); assay: SPR; hROR1-Fc immobilized;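 note: biacore T200 SPR with ROR1 covalently coupled to a CM5 chip, analyte titration series, apparent rate and equilibrium constants fitted with a 1:1 Langmuir model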
T3 construct: Bought; also called hROR1; recombinant human ROR1 ECD; not shown: Fc tag

[8] = target: T2, human ROR1 expressed on cells; assay: flow cytometry, MDA-MB-231 cells, 1 mg/ml hSA
Procedure: After incubation at 4° C. for 1 h in presence of 1 mg/mi of human serum albumin (hSA), plates were washed and incubated with specific detection antibodies.
The binding of anti-ROR1xhSAxCD3 scMATCH3 molecules to plasma membrane human ROR1 was assessed by flow cytometry.

[9] = target: T2, human ROR1 expressed on cells; assay: cell-based or functional assay; remark: listed apart in the source

Row | koff [1] [s⁻¹] | Avg. % max. CD8 T cell act. (JIMT-1) [2] [%] | Avg. % max. CD8 T cell act. (MDA-MB-231) [2] [%] | Avg. % max. CD8 T cell act. (SKOV3) [2] [%] | Avg. EC50 (nM) CD8 T cell act. (JIMT-1) [2] [nM] | Avg. EC50 (nM) CD8 T cell act. (MDA-MB-231) [2] [nM] | Avg. EC50 (nM) CD8 T cell act. (SKOV3) [2] [nM] | Avg. % max. lysis (JIMT-1) [3] [%] | Avg. % max. lysis (MDA-MB-231) [3] [%] | Avg. % max. lysis (SKOV3) [3] [%] | Kd [4] [nM] | ka2 [4] [s⁻¹] | kd2 [4] [s⁻¹] | kon [6] [M⁻¹ s⁻¹] | Kd [7] [nM] | koff [7] [s⁻¹] | kon [7] [M⁻¹ s⁻¹] | EC50 [8] [nM] | Rel. maximum binding (MFIscMATCH3/MFIPRO2213) [8] | Binder | EC50 (nM) Cytotoxicity (MDA-MB-231) [9] [nM] | further results
1 | 0.0031 | 48.7 | 65.3 | 81.5 | 5.4 | 0.52 | 1.2 | 83 | 78.2 | 88 | 5.5 | 0.00042 | 0.0014 | 430000 | 1.6 | 0.00067 | 420000 | 3.27 | 2.43 | PRO2557 (bispecific antibody, trispecific anti-ROR1 x hSA x CD3 scMATCH3, single chain; also called 19-04-A10-sc06 scDb-o/28-21-D09-sc04 scDb-i/55-39-G02-sc06-scFv) AFELTQSPSSLSASVGDRVTITCQASESINSRLAWYQQKPGQPPKLLIYDASDLTSGVPSRFSGSGSGTDFTLTISSLQPEDFATYYCQGYGGSSTTTFGCGTKLTVLGGGGGSEVQLVESGGGLVQPGGSLRLSCAASGFSLSSYDMSWVRQAPGKGLAWIGASYASGPTYYASWAKGRFTISRDNSKNTVYLQMNSLRAEDTATYFCARGGWTGTSHSNIWGQGTLVTVSSGGGGSGGGGSGGGGSGGGGSDIQMTQSPSSLSASVGDRVTITCQSSQSVFSNNYLAWFQQKPGQSPKRLIYSASTLASGVPSRFSGSGSGTDFTLTISSLQPEDFATYYCLGSYACSSADCYVFGTGTKVTVLGGGGGSEVQLVESGGGLVQPGGSLRLSCAASGFSLSSYAMNWVRQAPGKCLEWIGHINAGDIAYYATWAKGRFTISRDNSKNTVYLQMNSLRAEDTAVYFCARGAGGFSTGPFKLWGQGTLVTVSSGGGGSGGGGSAQQLTQSPSSLSASVGDRVTITCQASQNVWNNNYLSWFQQKPGKPPKLLIVTASTLASGVSSRFSGSGSGTDFTLTISSLQPEDFATYYCAGGFSGEIRAFGCGTKVTVLGGGGGSGGGGSGGGGSGGGGSQSQLVESGGGLVQPGGSLRLSCAVSGIDLSRNAMSWVRQAPGKCLEWIGIILTSGSTYYASWAKGRFTISKTSTTLDLQMNSLRAEDTAVYFCVRGIASSSLKSFWGQGTLVTVSS | 3.1 | Avg. EC50 (nM) CD8 T cell act. (MDA-MB-231) [3]: 0.52 nM; Avg. EC50 (nM) CD8 T cell act. (SKOV3) [3]: 1.2 nM; Avg. EC50 (nM) Cytotoxicity (JIMT-1) [3]: 3.4 nM; Avg. EC50 (nM) Cytotoxicity (MDA-MB-231) [3]: 0.74 nM; Avg. EC50 (nM) Cytotoxicity (SKOV3) [3]: 1.3 nM; Avg. % max. CD4 T cell act. (JIMT-1) [5]: 69.3%; Avg. % max. CD4 T cell act. (MDA-MB-231) [5]: 77.7%; Avg. % max. CD4 T cell act. (SKOV3) [5]: 87.5%; Avg. EC50 (nM) CD4 T cell act. (JIMT-1) [5]: 3.3 nM; Avg. EC50 (nM) CD4 T cell act. (MDA-MB-231) [5]: 0.2 nM; Avg. EC50 (nM) CD4 T cell act. (SKOV3) [5]: 0.55 nM
2 | 0.0034 | – | – | – | – | – | – | – | – | – | 2.1 | 0.00096 | 0.0016 | 1e+06 | 0.36 | 0.00047 | 1.3e+06 | 1.12 | 2.57 | PRO2509 (bispecific antibody, trispecific anti-ROR1 x hSA x CD3 scMATCH3, single chain; also called 19-04-A10-sc06 scDb-o/28-21-D09-sc04 scDb-i/55-39-G02-sc02-scFv) AFELTQSPSSLSASVGDRVTITCQASESINSRLAWYQQKPGQPPKLLIYDASDLTSGVPSRFSGSGSGTDFTLTISSLQPEDFATYYCQGYGGSSTTTFGCGTKLTVLGGGGGSEVQLVESGGGLVQPGGSLRLSCAASGFSLSSYDMSWVRQAPGKGLAWIGASYASGPTYYASWAKGRFTISRDNSKNTVYLQMNSLRAEDTATYFCARGGWTGTSHSNIWGQGTLVTVSSGGGGSGGGGSGGGGSGGGGSDIQMTQSPSSLSASVGDRVTITCQSSQSVFSNNYLAWFQQKPGQSPKRLIYSASTLASGVPSRFSGSGSGTDFTLTISSLQPEDFATYYCLGSYACSSADCYVFGTGTKVTVLGGGGGSEVQLVESGGGLVQPGGSLRLSCAASGFSLSSYAMNWVRQAPGKCLEWIGHINAGDIAYYATWAKGRFTISRDNSKNTVYLQMNSLRAEDTAVYFCARGAGGFSTGPFKLWGQGTLVTVSSGGGGSGGGGSAQQLTQSPSSLSASVGDRVTITCQASQNVWNNNYLSWFQQKPGKPPKLLIVTASTLASGVSSRFSGSGSGTDFTLTISSLQPEDFATYYCAGGFSGEIRAFGTGTKVTVLGGGGGSGGGGSGGGGSGGGGSQSQLVESGGGLVQPGGSLRLSCAVSGLSLSRNAMSWVRQAPGKGLEWIGIILTSGSTYYASWAKGRFTISKDNSKNTVYLQMNSLRAEDTAVYFCVRGIASSSLKSFWGQGTLVTVSS | 0.31 | –
3 | 0.006 | 40.8 | 68 | 64.3 | 2.9 | 0.36 | 0.34 | 63.9 | 64.6 | 79.1 | 9.4 | 0.0069 | 0.0078 | 340000 | < 0.12 | < 1e-05 | 82000 | 26.9 | 2.88 | PRO2507 (bispecific antibody, trispecific anti-ROR1 x hSA x CD3 scMATCH3, single chain; also called 19-04-A10-sc06 scDb-o/28-21-D09-sc04 scDb-i/55-38-D07-sc02-scFv) AFELTQSPSSLSASVGDRVTITCQASESINSRLAWYQQKPGQPPKLLIYDASDLTSGVPSRFSGSGSGTDFTLTISSLQPEDFATYYCQGYGGSSTTTFGCGTKLTVLGGGGGSEVQLVESGGGLVQPGGSLRLSCAASGFSLSSYDMSWVRQAPGKGLAWIGASYASGPTYYASWAKGRFTISRDNSKNTVYLQMNSLRAEDTATYFCARGGWTGTSHSNIWGQGTLVTVSSGGGGSGGGGSGGGGSGGGGSDIQMTQSPSSLSASVGDRVTITCQSSQSVFSNNYLAWFQQKPGQSPKRLIYSASTLASGVPSRFSGSGSGTDFTLTISSLQPEDFATYYCLGSYACSSADCYVFGTGTKVTVLGGGGGSEVQLVESGGGLVQPGGSLRLSCAASGFSLSSYAMNWVRQAPGKCLEWIGHINAGDIAYYATWAKGRFTISRDNSKNTVYLQMNSLRAEDTAVYFCARGAGGFSTGPFKLWGQGTLVTVSSGGGGSGGGGSDVQMTQSPSSLSASVGDRVTITCRASENIYSGLAWYQQKPGKPPKLLIYRASTLASGVSSRFSGSGSGTDFTLTISSLQPEDFATYYCQGGYYSSSSTYIAFGTGTKVTVLGGGGGSGGGGSGGGGSGGGGSQSQVVESGGGLVQPGGSLRLSCAVSGFDLSSYAVSWVRQAPGKGLEWIGIIYPRANTYYASWAKGRFTISKDNSKNTVYLQMNSLRAEDTAVYFCARDRYDSGAYLYTTYFNLWGQGTLVTVSS | 1 | Avg. EC50 (nM) CD8 T cell act. (MDA-MB-231) [3]: 0.36 nM; Avg. EC50 (nM) CD8 T cell act. (SKOV3) [3]: 0.34 nM; Avg. EC50 (nM) Cytotoxicity (JIMT-1) [3]: 2 nM; Avg. EC50 (nM) Cytotoxicity (MDA-MB-231) [3]: 0.47 nM; Avg. EC50 (nM) Cytotoxicity (SKOV3) [3]: 0.42 nM; Avg. % max. CD4 T cell act. (JIMT-1) [5]: 63.2%; Avg. % max. CD4 T cell act. (MDA-MB-231) [5]: 81.8%; Avg. % max. CD4 T cell act. (SKOV3) [5]: 83.3%; Avg. EC50 (nM) CD4 T cell act. (JIMT-1) [5]: 2.4 nM; Avg. EC50 (nM) CD4 T cell act. (MDA-MB-231) [5]: 0.14 nM; Avg. EC50 (nM) CD4 T cell act. (SKOV3) [5]: 0.22 nM
